Test results reported in paper PMC5472190.

Assays:
[1] = target: nuclear egress complex (NEC), heterodimer of pUL31 and pUL34 (herpes simplex virus 1, strain F) (UniProt P10215); experiment: cryo-electron tomography; tomograms of nuclear sacs from US3-null-infected Vero cells; 188 ring subtomograms, rotational symmetry by ROTASTAT, subtomogram averaging
[2] = target: triplex of the HSV-1 capsid (herpes simplex virus 1, strain F); experiment: cryo-EM structure; icosahedral reconstruction of isolated PEVs (123 particles), projection matching from a starting map of in vitro-matured B-capsids that lack CCSC and pUL35; ~2 nm around the capsid shell, ~3.5 nm for the whole particle

Substance | stoichiometry N [1] | occupancy [2] [%]
nuclear egress complex (NEC), heterodimer of pUL31 and pUL34 (from UniProt P10215 1-306; P10218 1-275) | 7 | 
heterodimeric pUL17/pUL25 complex, C-capsid-specific complex (CCSC) (from UniProt P10201 1-703; P10209 1-580) |  | 100
